Biological target: the molecule itself
Experiment: SEC; Superdex 200 16/60 preparative grade; 50 mM Tris-HCl pH 8.0, 100 mM NaCl, 5% glycerol, 0.1% Tween 20; apparent molecular weight from a calibration curve

| Protein | stoichiometry N |
| --- | --- |
| recombinant alpha subunit of human mitochondrial trifunctional protein, wild type (enzyme, also called hTFPα; hTFPα-wt; source: E. coli BL21 (DE3), purified (Ni-NTA, SEC on Superdex 200)) not shown | 2 |
| recombinant alpha subunit of human mitochondrial trifunctional protein, Y271F mutant (enzyme, also called hTFPα-Y271F; source: E. coli BL21 (DE3), purified (Ni-NTA, TEV cleavage, SEC)) not shown | 2 |

Source: publication PMC10325834, “Characteristics of Mycobacterium tuberculosis PtpA interaction and activity on the alpha subunit of human mitochondrial trifunctional protein, a key enzyme of lipid metabolism” (Frontiers in Cellular and Infection Microbiology, 2023)
